# Experimental data reported in publication PMC5341102.
# B1: SKN-1: S470A/T493A (protein)
# parent chain: MGGSSRRQRSTSATRRDDKRRRRQCFSSVADDEEETTSIYGVSSIFIWILATSSLILVISSPSSNTSIQSSSYDRITTKHLLDNISPTFKMYTDSNNRNFDEVNHQHQQEQDFNGQSKYDYPQFNRPMGLRWRDDQRMMEYFMSNGPVETVPVMPILTEHPPASPFGRGPSTERPTTSSRYEYSSPSLEDIDLIDVLWRSDIAGEKGTRQVAPADQYECDLQTLTEKSTVAPLTAEENARYEDLSKGFYNGFFESFNNNQYQQKHQQQQREQIKTPTLEHPTQKAELEDDLFDEDLAQLFEDVSREEGQLNQLFDNKQQHPVINNVSLSEGIVYNQANLTEMQEMRDSCNQVSISTIPTTSTAQPETLFNVTDSQTVEQWLPTEVVPNDVFPTSNYAYIGMQNDSLQAVVSNGQIDYDHSYQSTGQTPLSPLIIGSSGRQQQTQTSPGSVTVTATATQSLFDPYHSQRHSFSDCTTDSSSTCSRLSSESPRYTSESSTGTHESRFYGKLAPSSGSRYQRSSSPRSSQSSIKIARVVPLASGQRKRGRQSKDEQLASDNELPVSAFQISEMSLSELQQVLKNESLSEYQRQLIRKIRRRGKNKVAARTCRQRRTDRHDKMSHYI
# B2: SKN-1: oga-1 loss (protein)
# parent chain: B1 parent chain
# B3: SKN-1: oga-1(ok1207) (protein)
# parent chain: B1 parent chain
# B4: SKN-1: T493A (protein)
# parent chain: B1 parent chain
# B5: SKN-1: without HIS-OGT-1 (protein)
# parent chain: B1 parent chain
# B6: SKN-1: ogt-1 loss (protein)
# parent chain: B1 parent chain
# B7: SKN-1: ogt-1(ok1474) (protein)
# parent chain: B1 parent chain
# What was measured:
# [1] = survival on 9.125 mM tBHP, skn-1(zu67) background; conditions: glycan lost; control: skn-1(zu67) expressing SKN-1B/C::GFP
# [2] = GFP scoring of intestinal nuclei, tBHP
# [3] = worm lifespan at 20 °C, N2 background; conditions: glycan lost; control: N2 expressing SKN-1B/C::GFP
# [4] = GFP scoring of intestinal nuclei, oga-1 background; conditions: glycan lost; control: SKN-1B/C::GFP in oga-1(ok1207)
# [5] = in vitro kinase assay, anti-phosphoserine blot; conditions: glycan lost; control: wild type GST-SKN-1(321–623aa) co-expressed with HIS-OGT-1
# [6] = worm lifespan at 20 °C, skn-1(zu67) background; conditions: glycan lost; control: skn-1(zu67) expressing SKN-1B/C::GFP
# [7] = survival on 9.125 mM tBHP, N2 background; conditions: glycan lost; control: N2 expressing SKN-1B/C::GFP
# [8] = GFP scoring of intestinal nuclei, gsk-3 RNAi; conditions: glycan lost, control: SKN-1B/C::GFP worms
# [9] = SKN-1 expression in ASI neurons; conditions: control: wild type worms
# [10] = anti-phospho-SKN-1(Ser483) blot; conditions: glycan gained; control: wild type worms
# [11] = GFP scoring of intestinal nuclei, normal condition; conditions: control: N2 expressing SKN-1B/C::GFP, untreated
protein,measurement,setting,value
B1,other: oxidative stress resistance conferred by transgene,[1],abolishes
same,localisation_or_trafficking,"[2]; glycan lost, control: SKN-1B/C::GFP in N2, tBHP-treated",decreases
same,other: lifespan extension by transgene,[3],abolishes
same,localisation_or_trafficking,[4],decreases
same,other: phosphorylation by GSK-3,[5],increases
same,other: lifespan extension by transgene,[6],abolishes
same,other: oxidative stress resistance conferred by transgene,[7],abolishes
same,localisation_or_trafficking,[8],decreases
B2,expression_or_secretion,[9]; glycan gained,no change
same,other: Ser483 phosphorylation,[10],decreases
B3,localisation_or_trafficking,"[2]; glycan gained, control: N2 expressing SKN-1B/C::GFP, tBHP-treated",increases
same,localisation_or_trafficking,[11]; glycan gained,increases
B4,other: phosphorylation by GSK-3,[5],increases
B5,other: phosphorylation by GSK-3,[5],increases
B6,expression_or_secretion,[9]; glycan lost,no change
B7,localisation_or_trafficking,"[2]; glycan lost, control: N2 expressing SKN-1B/C::GFP, tBHP-treated",decreases
same,localisation_or_trafficking,[11]; glycan lost,no change
